{
  "source": "patent US20260355338",
  "about": "(published 2026)",
  "binders": {"B1": {"name": "EP101-3014 (1565-Y) (antibody)", "chain 1": "QVQLVQSGAEVKKPGASVKVSCKASGYTFTNYYIHWVRQAPGQRLEYIGWIYPGNVYIQYNEKFKGRATLTADKSASTAYMELSSLRSEDTAVYYCARDGYWFAYWGQGTLVTVSS", "chain 2": "QGQSGQGSWCHSATDTILPCSNGGGSSGGAVGLLAPPGGLSGRSDNIGGSDIVLTQTPLSLSVTPGQPASISCRSSRSLLHSDGFTYLYWFLQKPGQSPQLLIYQTSNLASGVPDRFSSSGSGTDFTLKISRVEAEDVGVYYCAQNLELPNTFGQGTKLEIK"}, "B2": {"name": "EP03-3014 (1361-H) (antibody)", "chain 1": "B1 chain 1 with Y33H, Y101P", "chain 2": "B1 chain 2 with S8H, W9Y, A13R, L18T, P19H, S21N, N22A"}, "B3": {"name": "EP01-3014 (1565-Y) (antibody)", "chain 1": "B1 chain 1", "chain 2": "QGQSGQGPLMTCSDYYTCKNNLGGGSSGGAVGLLAPPGGLSGRSDNIGGSDIVLTQTPLSLSVTPGQPASISCRSSRSLLHSDGFTYLYWFLQKPGQSPQLLIYQTSNLASGVPDRFSSSGSGTDFTLKISRVEAEDVGVYYCAQNLELPNTFGQGTKLEIK"}, "B4": {"name": "EP104-3014 (1565-Y) (antibody)", "chain 1": "B1 chain 1", "chain 2": "QGQSGQGTTRCEHYWFTCPLSPGGGSSGGAVGLLAPPGGLSGRSDNIGGSDIVLTQTPLSLSVTPGQPASISCRSSRSLLHSDGFTYLYWFLQKPGQSPQLLIYQTSNLASGVPDRFSSSGSGTDFTLKISRVEAEDVGVYYCAQNLELPNTFGQGTKLEIK"}, "B5": {"name": "EP01-3014 (1361-H) (antibody)", "chain 1": "B1 chain 1 with Y33H, Y101P", "chain 2": "B3 chain 2"}, "B6": {"name": "EP05-3014 (1361-H) (antibody)", "chain 1": "B1 chain 1 with Y33H, Y101P", "chain 2": "QGQSGQGWWPPCQGGAWCEQRIGGGSSGGAVGLLAPPGGLSGRSDNIGGSDIVLTQTPLSLSVTPGQPASISCRSSRSLLHSDGFTYLYWFLQKPGQSPQLLIYQTSNLASGVPDRFSSSGSGTDFTLKISRVEAEDVGVYYCAQNLELPNTFGQGTKLEIK"}, "B7": {"name": "EP02-3014 (1361-H) (antibody)", "chain 1": "B1 chain 1 with Y33H, Y101P", "chain 2": "QGQSGQGLSCTHSRYDMHCPHMGGGSSGGAVGLLAPPGGLSGRSDNIGGSDIVLTQTPLSLSVTPGQPASISCRSSRSLLHSDGFTYLYWFLQKPGQSPQLLIYQTSNLASGVPDRFSSSGSGTDFTLKISRVEAEDVGVYYCAQNLELPNTFGQGTKLEIK"}, "B8": {"name": "EP110-3014 (1361-H) (antibody)", "chain 1": "B1 chain 1 with Y33H, Y101P", "chain 2": "QGQSGQGPRPHCAILRQCLAATGGGSSGGAVGLLAPPGGLSGRSDNIGGSDIVLTQTPLSLSVTPGQPASISCRSSRSLLHSDGFTYLYWFLQKPGQSPQLLIYQTSNLASGVPDRFSSSGSGTDFTLKISRVEAEDVGVYYCAQNLELPNTFGQGTKLEIK"}, "B9": {"name": "EP11-3014 (1361-H) (antibody)", "chain 1": "B1 chain 1 with Y33H, Y101P", "chain 2": "QGQSGQGFICPTLYDRPHCMHTGGGSSGGAVGLLAPPGGLSGRSDNIGGSDIVLTQTPLSLSVTPGQPASISCRSSRSLLHSDGFTYLYWFLQKPGQSPQLLIYQTSNLASGVPDRFSSSGSGTDFTLKISRVEAEDVGVYYCAQNLELPNTFGQGTKLEIK"}, "B10": {"name": "EP02-3014 (1565-Y) (antibody)", "chain 1": "B1 chain 1", "chain 2": "B7 chain 2"}, "B11": {"name": "EP107-3-3014 (1361-H) (antibody)", "chain 1": "B1 chain 1 with Y33H, Y101P", "chain 2": "QGQSGQGSLPCSYMHPYCFYNSGGGSSGGAVGLLAPPGGLSGRSDNIGGSDIVLTQTPLSLSVTPGQPASISCRSSRSLLHSDGFTYLYWFLQKPGQSPQLLIYQTSNLASGVPDRFSSSGSGTDFTLKISRVEAEDVGVYYCAQNLELPNTFGQGTKLEIK"}, "B12": {"name": "EP103-3014 (1565-Y) (antibody)", "chain 1": "B1 chain 1", "chain 2": "B7 chain 2 with L8M, T11V, H12V, S13D, Y15F, M17R, H18Q, M22L"}, "B13": {"name": "EP102-3014 (1565-Y) (antibody)", "chain 1": "B1 chain 1", "chain 2": "QGQSGQGSPACSDRYYQTCVLNGGGSSGGAVGLLAPPGGLSGRSDNIGGSDIVLTQTPLSLSVTPGQPASISCRSSRSLLHSDGFTYLYWFLQKPGQSPQLLIYQTSNLASGVPDRFSSSGSGTDFTLKISRVEAEDVGVYYCAQNLELPNTFGQGTKLEIK"}, "B14": {"name": "EP04-3014 (1565-Y) (antibody)", "chain 1": "B1 chain 1", "chain 2": "QGQSGQGWCPRLFDRPSMGCPTGGGSSGGAVGLLAPPGGLSGRSDNIGGSDIVLTQTPLSLSVTPGQPASISCRSSRSLLHSDGFTYLYWFLQKPGQSPQLLIYQTSNLASGVPDRFSSSGSGTDFTLKISRVEAEDVGVYYCAQNLELPNTFGQGTKLEIK"}, "B15": {"name": "EP11-3014 (1565-Y) (antibody)", "chain 1": "B1 chain 1", "chain 2": "B9 chain 2"}, "B16": {"name": "EP07-3014 (1361-H) (antibody)", "chain 1": "B1 chain 1 with Y33H, Y101P", "chain 2": "QGQSGQGHSGCPRLFDRCSAPAGGGSSGGAVGLLAPPGGLSGRSDNIGGSDIVLTQTPLSLSVTPGQPASISCRSSRSLLHSDGFTYLYWFLQKPGQSPQLLIYQTSNLASGVPDRFSSSGSGTDFTLKISRVEAEDVGVYYCAQNLELPNTFGQGTKLEIK"}, "B17": {"name": "EP03-3014 (1565-Y) (antibody)", "chain 1": "B1 chain 1", "chain 2": "B1 chain 2 with S8H, W9Y, A13R, L18T, P19H, S21N, N22A"}, "B18": {"name": "EP105-3014 (1361-H) (antibody)", "chain 1": "B1 chain 1 with Y33H, Y101P", "chain 2": "QGQSGQGDCTGYSPSVLPACRVGGGSSGGAVGLLAPPGGLSGRSDNIGGSDIVLTQTPLSLSVTPGQPASISCRSSRSLLHSDGFTYLYWFLQKPGQSPQLLIYQTSNLASGVPDRFSSSGSGTDFTLKISRVEAEDVGVYYCAQNLELPNTFGQGTKLEIK"}, "B19": {"name": "EP108-3014 (1361-H) (antibody)", "chain 1": "B1 chain 1 with Y33H, Y101P", "chain 2": "B11 chain 2 with S8L, L9T, P10R, S12T, Y13I, M14A, F19Y, S22Y"}, "B20": {"name": "EP107-2-3014 (1361-H) (antibody)", "chain 1": "B1 chain 1 with Y33H, Y101P", "chain 2": "B11 chain 2 with L9H"}, "B21": {"name": "EP109-3014 (1361-H) (antibody)", "chain 1": "B1 chain 1 with Y33H, Y101P", "chain 2": "QGQSGQGPNTCMSERRICSLTYGGGSSGGAVGLLAPPGGLSGRSDNIGGSDIVLTQTPLSLSVTPGQPASISCRSSRSLLHSDGFTYLYWFLQKPGQSPQLLIYQTSNLASGVPDRFSSSGSGTDFTLKISRVEAEDVGVYYCAQNLELPNTFGQGTKLEIK"}, "B22": {"name": "EP05-3014 (1565-Y) (antibody)", "chain 1": "B1 chain 1", "chain 2": "B6 chain 2"}, "B23": {"name": "EP107-1-3014 (1361-H) (antibody)", "chain 1": "B1 chain 1 with Y33H, Y101P", "chain 2": "B11 chain 2 with L9R"}, "B24": {"name": "EP106-3014 (1361-H) (antibody)", "chain 1": "B1 chain 1 with Y33H, Y101P", "chain 2": "B18 chain 2 with D8F, T10S, A19S, R21L, V22M"}},
  "note": "Where a chain is given by its changes, count along the chain named.",
  "data": [
    {"biological_target": "T1, human EpCAM-mFc (human)", "T1 chain": "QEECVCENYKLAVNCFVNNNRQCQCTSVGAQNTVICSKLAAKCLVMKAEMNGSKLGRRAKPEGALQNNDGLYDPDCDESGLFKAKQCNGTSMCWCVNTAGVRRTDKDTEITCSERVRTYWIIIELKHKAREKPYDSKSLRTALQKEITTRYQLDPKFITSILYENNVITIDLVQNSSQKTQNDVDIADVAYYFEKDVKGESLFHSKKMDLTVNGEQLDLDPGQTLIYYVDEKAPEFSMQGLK", "assay": "ELISA", "units": {"Kd": "nM"}, "values": [
      {"binder": "B1", "Kd": 389},
      {"binder": "B2", "Kd": 4},
      {"binder": "B3", "Kd": 0.66},
      {"binder": "B4", "Kd": 126},
      {"binder": "B5", "Kd": 18.2},
      {"binder": "B6", "Kd": 0.46},
      {"binder": "B7", "Kd": 0.44},
      {"binder": "B8", "Kd": 336},
      {"binder": "B9", "Kd": 30.5},
      {"binder": "B10", "Kd": 34.5},
      {"binder": "B11", "Kd": 44},
      {"binder": "B12", "Kd": 140},
      {"binder": "B13", "Kd": 72.5},
      {"binder": "B14", "Kd": 26.9},
      {"binder": "B15", "Kd": 38},
      {"binder": "B16", "Kd": 1.5},
      {"binder": "B17", "Kd": 64.4},
      {"binder": "B18", "Kd": 201},
      {"binder": "B19", "Kd": 58},
      {"binder": "B20", "Kd": 44},
      {"binder": "B21", "Kd": 512},
      {"binder": "B22", "Kd": 8.6},
      {"binder": "B23", "Kd": 31},
      {"binder": "B24", "Kd": 348}
    ]}
  ]
}
